Assay results taken from patent US20080145369A1.
pKd: −log10 of the molar value.

How the values were obtained:
[1] = target: PCDGF receptor on breast cancer cells (MCF-7; AG-BC1); experiment: PCDGF binding to AG-BC1 cells against MCF-7 cells; method not stated
[2] = target: PCDGF cell surface receptors on the mink lung epithelial cell line CCL64 (mink); experiment: Scatchard analysis of 125I-PCDGF binding to CCL64 cells, low affinity class
[3] = target: PCDGF cell surface receptors on the mink lung epithelial cell line CCL64 (mink); experiment: Scatchard analysis of 125I-PCDGF binding to CCL64 cells, high affinity class

Substance: PC-cell-derived growth factor (PCDGF) (ligand)
- fold increase in binding against MCF-7 cells [1]: 10 fold
- pKd [2]: 8.41
- pKd [3]: 10.37
